From PMC4335783, “A novel psychrophilic alkaline phosphatase from the metagenome of tidal flat sediments” (BMC Biotechnology, 2015)

Tested on: T1, O=[N+]([O-])c1ccc(OP(=O)(O)O)cc1
T1 construct: printed as 527 residues, 56 kDa; C-terminal factor Xa site and His6 tag; E. coli BL21(DE3) periplasm; monomer
Test: purified protein
Type: biochemical, uncultured bacterium
Details: 37 °C, pH 9.0, 50 mM DEA, 0.5 mM CaCl2

mAP (metagenome-derived alkaline phosphatase) (uncultured bacterium)
Km: 180 µM
kcat: 952 s⁻¹
kcat/Km: 5.3e+06 M⁻¹ s⁻¹
